What is called Kd is the free concentration of one partner at which half of the binding sites on the other are occupied at equilibrium, for simple one-to-one binding.

The source of these data is PMC9723642.

Common to all, as to assay: EMSA
Holding throughout (details): EMSA: 10 mM Tris-HCl pH 7.5, 1 mM EDTA, 100 mM KCl, 0.1 mM DTT, 5% glycerol, 0.01 mg/mL BSA, 20 nM RNA, room temperature, 1 h; pull-down: RNA folded in 100 mM …
For orientation: Mobility shift assays separate free from complexed probe on a gel.

The subject of data set [1] is RGG peptide (Homo sapiens).
Data set [2] concerns recombinant NCL (Homo sapiens).
The test system of data set [3] is NCL* (PRMT1-methylated recombinant NCL) (Homo sapiens).
Data set [4] deals with RGG* methylated peptide (Homo sapiens).

For the substance EBNA1, the Kd in data set [1] was 0.154 nM; in data set [2], 306 nM; in data set [3], 202 nM; in data set [4], 0.107 nM.
